Reference: patent US20260055176A1 (SURFACE ONCOLOGY, published 2026)

Columns and labels:
recombinant human IL-27 [1] = molecular target: T1, recombinant human IL-27 (human, UniProt Q14213 21-229; Q8NEV9 29-243); experiment: cell-based or functional assay
T1 sequence 1: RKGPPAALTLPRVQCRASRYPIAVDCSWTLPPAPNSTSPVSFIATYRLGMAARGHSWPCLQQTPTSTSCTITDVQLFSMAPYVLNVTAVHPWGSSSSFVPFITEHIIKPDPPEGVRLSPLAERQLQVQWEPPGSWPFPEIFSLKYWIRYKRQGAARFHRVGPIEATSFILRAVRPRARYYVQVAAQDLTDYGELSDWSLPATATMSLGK
T1 sequence 2: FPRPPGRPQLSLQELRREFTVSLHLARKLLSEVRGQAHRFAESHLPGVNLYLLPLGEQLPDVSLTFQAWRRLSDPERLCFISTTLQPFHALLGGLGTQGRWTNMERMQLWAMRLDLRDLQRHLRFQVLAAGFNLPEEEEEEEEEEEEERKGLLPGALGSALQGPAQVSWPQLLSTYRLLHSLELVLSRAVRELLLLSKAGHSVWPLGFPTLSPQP

recombinant human IL-27 [2] = molecular target: T1, recombinant human IL-27; experiment: MSD sandwich immunoassay: named antibody coated as capture (0.5 ug/mL), recombinant human IL-27 500 ng/mL, biotinylated SRF381 as detection, SULFO-TAG streptavidin
Method: The ability of anti-IL-27 antibodies to pair with the anti-p28 antibody SRF381 to detect recombinant human IL-27 was assessed by sandwich MSD Immunoassay. Briefly, MSD QUICKPLEX 96-well plates (Meso Scale Discovery L55XA) were coated with 50 μL/well anti-IL-27 antibodies (0.5 μg/mL diluted in PBS) sealed and incubated overnight at 4° C. Plates were washed 3 times with 150 μL/well of wash buffer (PBS+0.01% Tween). Plates were then blocked with 200 μL/well of blocking buffer (PBS+1% BSA+0.01% Tween) for 1 hour at room temperature (RT) with shaking. Blocking buffer was decanted, plates were washed 3 times with 150 μL/well of wash buffer, and 50 μL/well recombinant human IL-27 (R&D Systems 2526-IL/CF) (500 ng/mL diluted in blocking buffer) was added to each well for 2 hours at RT with shaking. Plates were washed 3 times with 150 μL/well of wash buffer, and 50 μL biotinylated SRF381 (diluted 0.5 μg/mL in blocking buffer) was added to each well for 1 hour at RT with shaking. […] Plates were washed 3 times with 150 μL/well of wash buffer and 150 μL of MSD read buffer (Meso Scale Discovery R92TC-1) (diluted to 2X in deionized water) was added to each well and plates were read on a MESO QUICKPLEX SQ120.

recombinant human IL-27 [3] = molecular target: T1, recombinant human IL-27; experiment: SPR (Biacore T200), hIL-27 immobilised on CM5, single cycle kinetics
Method: The antibodies were further characterized by surface plasmon resonance (SPR). Kinetic experiments were performed on a Biacore T200 (GE Healthcare, Uppsala, Sweden). All experiments were run at 25° C. with HBS-P+running buffer (pH 7.4) (GE Healthcare, Little Chalfont, UK) using hIL-27 (R&D Systems, Abingdon, UK). Human IL-27 (hIL-27) antigen was captured on a CM5 chip to ˜ 16 RU. Immobilization was carried out at a protein concentration of 1 μg/mL in 10 mM acetate buffer pH 5.0. A three point, three-fold dilution range from 3.3 nM to 30 nM of antibody diluted in HBS-P+buffer without regeneration between each concentration was used. The association phase for the three injections of increasing concentrations of antibody was monitored for 75 seconds each time and a single dissociation phase was measured for 250 seconds following the last injection of antibody. Regeneration of the hIL-27 surface was conducted using a single injection of 2M MgCl₂ for 120s. Multiple repeats (n=4) of the chimeric antibody were performed throughout the assay to check the stability of the surface and analyte over the kinetic cycles.

B1: SRF381 (antibody, V domains shown)
VH: EVQLVESGGGLVKPGGSLRLSCAASGFTFRSYGMNWVRQAPGKGLEWVSSISSSSSYIYYADSVKGRFTISRDNAKNSLYLQMNSLRAEDTAVYYCARDGGRTSYTATAHNWFDPWGQGTLVTVSS
VL: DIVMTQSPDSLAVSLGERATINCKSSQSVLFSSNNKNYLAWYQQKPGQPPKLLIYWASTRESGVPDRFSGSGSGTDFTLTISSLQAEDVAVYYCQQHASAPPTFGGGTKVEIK
Recombinant human IL-27 [1]
  IC50 of inhibition of IL-27-mediated phosphorylation of STAT1 in HUT-78 cells: 0.08 µg/mL
  IC50 of inhibition of IL-27-mediated phosphorylation of STAT1 in U937 cells: 0.081 µg/mL
  IC50 of inhibition of IL-27-mediated phosphorylation of STAT1 in pooled human PBMCs: 0.141 µg/mL

B2: SRF388 (antibody, V domains shown)
VH: EVQLVESGGGLVKPGGSLRLSCAASGFTFRSYGMNWVRQAPGKGLEWVSGISSSGSYIYYADSVKGRFTISRDNAKNSLYLQMNSLRAEDTAVYYCARDGGRTSYTATAHNWFDPWGQGTLVTVSS
VL: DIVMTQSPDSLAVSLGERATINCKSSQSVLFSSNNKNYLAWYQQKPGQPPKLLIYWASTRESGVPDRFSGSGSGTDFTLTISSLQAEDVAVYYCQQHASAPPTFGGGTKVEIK
Recombinant human IL-27 [1]
  IC50 of inhibition of IL-27-mediated phosphorylation of STAT1 in HUT-78 cells: 0.095 µg/mL
  IC50 of inhibition of IL-27-mediated phosphorylation of STAT1 in U937 cells: 0.096 µg/mL
  IC50 of inhibition of IL-27-mediated phosphorylation of STAT1 in pooled human PBMCs: 0.0583 µg/mL

B3: SRF605 (antibody, V domains shown)
VH: QVQLQESGPGLVKPSQTLSLTCTVSGGSISSGGYYWSWIRQHPGKGLEWIGNIYYSGSTYYNPSLKSRVTISVDTSKNQFSLKLSSVTAADTAVYYCARDGVYQPGAYYWGQGTLVTVSS
VL: DIQLTQSPSSVSASVGDRVTITCRASQGISSWLAWYQQKPGKAPKLLIYGASSLQSGVPSRFSGSGSGTDFTLTISSLQPEDFATYYCQQGVSFPITFGGGTKVEIKR
notes: also called SRF605-A; SRF605-B
Recombinant human IL-27 [2]
  binding result: binds

B4: Ab7.7 (antibody, human IgG1, kappa, V domains shown)
VH: EVKLVESGGGLVQPGGSLRLSCAASGFTFTSYSMSWVRQAPGKGLEWVAYISYDGGSAYYPDTVKGRFTISRDNSKKTLYLQMSSLKSEDTAMYYCARHGDYDDDDAMDYWGQGTSVTVSS
VL: DIQMTQSPSSLSASVGDRVTITCRASENIYSYLNWYQQKPGKAPKLLVYNAETLTEGVPSRFSGSGSGTDFTLTISSLQPEDFATYYCQHHYGTPLTFGQGTKLEIKR
notes: humanized, human IgG1 / kappa; Ab7-VL4 variant; also called Ab7-VH1-IgG1 + Ab7-VL4-Kappa
Recombinant human IL-27 [3]
  binding result: no binding (tested: 30 nM)

B5: Ab7.11 (antibody, human IgG1, kappa, V domains shown)
VH: EVQLVESGGGLVQPGGSLRLSCAASGFTFTSYSMSWVRQAPGKGLEWVAYISYDGGSAYYPDTVKGRFTISRDNSKNTLYLQMSSLKSEDTAMYYCARHGDYDDDDAMDYWGQGTLVTVSS
VL: DIQMTQSPSSLSASVGDRVTITCRASENIYSYLNWYQQKPGKAPKLLVYNAETLTEGVPSRFSGSGSGTDFTLTISSLQPEDFATYYCQHHYGTPLTFGQGTKLEIKR
notes: humanized, human IgG1 / kappa; Ab7-VL4 variant; also called Ab7-VH2-IgG1 + Ab7-VL4-Kappa
Recombinant human IL-27 [3]
  binding result: no binding (tested: 30 nM)

B6: Ab7.15 (antibody, human IgG1, kappa, V domains shown)
VH: EVKLVESGGGLVQPGGSLRLSCAASGFTFTSYSMSWVRQAPGKGLEWVAYISYDGGSAYYPDTVKGRFTISRDNSKKTLYLQMNSLRAEDTAVYYCARHGDYDDDDAMDYWGQGTLVTVSS
VL: DIQMTQSPSSLSASVGDRVTITCRASENIYSYLNWYQQKPGKAPKLLVYNAETLTEGVPSRFSGSGSGTDFTLTISSLQPEDFATYYCQHHYGTPLTFGQGTKLEIKR
notes: humanized, human IgG1 / kappa; Ab7-VL4 variant; also called Ab7-VH3-IgG1 + Ab7-VL4-Kappa
Recombinant human IL-27 [3]
  binding result: no binding (tested: 30 nM)

B7: Ab7.19 (antibody, human IgG1, kappa, V domains shown)
VH: EVQLVESGGGLVQPGGSLRLSCAASGFTFTSYSMSWVRQAPGKGLEWVAYISYDGGSAYYPDTVKGRFTISRDNSKNTLYLQMNSLRAEDTAVYYCARHGDYDDDDAMDYWGQGTLVTVSS
VL: DIQMTQSPSSLSASVGDRVTITCRASENIYSYLNWYQQKPGKAPKLLVYNAETLTEGVPSRFSGSGSGTDFTLTISSLQPEDFATYYCQHHYGTPLTFGQGTKLEIKR
notes: humanized, human IgG1 / kappa; Ab7-VL4 variant; also called Ab7-VH4-IgG1 + Ab7-VL4-Kappa
Recombinant human IL-27 [3]
  binding result: no binding (tested: 30 nM)

B8: Ab7.23 (antibody, human IgG1, kappa, V domains shown)
VH: EVQLVESGGGLVQPGGSLRLSCAASGFTFTSYSMSWVRQAPGKGLEWVSYISYDGGSAYYPDTVKGRFTISRDNSKNTLYLQMNSLRAEDTAVYYCARHGDYDDDDAMDYWGQGTLVTVSS
VL: DIQMTQSPSSLSASVGDRVTITCRASENIYSYLNWYQQKPGKAPKLLVYNAETLTEGVPSRFSGSGSGTDFTLTISSLQPEDFATYYCQHHYGTPLTFGQGTKLEIKR
notes: humanized, human IgG1 / kappa; Ab7-VL4 variant; also called Ab7-VH5-IgG1 + Ab7-VL4-Kappa
Recombinant human IL-27 [3]
  binding result: no binding (tested: 30 nM)
